The target of this test is nucleosome containing the 193-bp Widom 601 DNA (24-bp linker DNAs at both ends) (human) (UniProt P04908). Briefly: mass photometry; 193-bp 601 nucleosome (1 µM) and DEK (2 µM) in 18 mM Tris-HCl pH 7.5, 60 mM NaCl, overnight at room temperature; diluted 1:40 for recording.

“And” between values parts separate entries of the source, which are not always exact repeats. Equal values may be shown once.

As to “recombinant human DEK protein (wild type) (from UniProt P35659 1-375) (natural protein)”, the stoichiometry N (DEK molecules per nucleosome) was 1 and 2.
